Results: patent US20120058906A1 (published 2012)
Numbering of substitutions follows the chain as printed. Each block holds one binder with its values, some of them ahead of it.

Experiments:
[1] = target: T1, rHuman Notch-1/Fc Chimera, CF (R&D Systems Cat#3647-TK) (human, UniProt P46531 19-526); experiment: MSD ECL multi-spot plate, antigen immobilized; Fab 8 nM; blank spot 489
T1 construct: Purchased Fc chimera; not shown: Fc portion of the purchased chimera

[2] = target: T2, rHuman ErbB2/Fc Chimera, CF (R&D Systems Cat#1129-ER) (human, UniProt P04626 23-652); experiment: as above
T2 construct: Purchased Fc chimera; also called HER2/neu; not shown: Fc portion of the purchased chimera

[3] = target: T3, Recombinant Human DLL4 (R&D Systems Cat#1506-D4/CF) (human, UniProt Q9NR61 27-524); experiment: as above
T3 construct: Purchased recombinant protein; also called delta-like protein 4

[4] = target: T4, rHuman CD44/Fc Chimera, CF (R&D Systems Cat#3660-CD) (human, UniProt P16070 21-220); experiment: as above
T4 construct: Purchased Fc chimera; not shown: Fc portion of the purchased chimera

[5] = target: T5, rHuman Erythropoietin R/Fc Chimera, CF (R&D Systems Cat#963-ER) (human, UniProt P19235 25-250); experiment: as above
T5 construct: Purchased Fc chimera; also called EPO R/Fc; Epo R; not shown: Fc portion of the purchased chimera
T5 sequence: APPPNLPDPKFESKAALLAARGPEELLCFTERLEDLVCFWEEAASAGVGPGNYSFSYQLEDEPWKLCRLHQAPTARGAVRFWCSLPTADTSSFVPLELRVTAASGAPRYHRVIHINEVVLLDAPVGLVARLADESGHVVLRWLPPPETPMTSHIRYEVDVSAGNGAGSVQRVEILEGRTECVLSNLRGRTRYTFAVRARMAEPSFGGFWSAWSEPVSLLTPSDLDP

[6] = target: T6, rHuman EGF R/Fc Chimera, CF (R&D Systems Cat#344-ER) (human, UniProt P00533 25-645); experiment: as above
T6 construct: Purchased Fc chimera; not shown: Fc portion of the purchased chimera

[7] = target: T7, rHuman P-Cadherin/Fc Chimera, CF (R&D Systems Cat#861-PC) (human, UniProt P22223 108-654); experiment: as above
T7 construct: Purchased Fc chimera; not shown: Fc portion of the purchased chimera

[8] = target: T8, rHuman IGF-1 sR (IGF-1 sR), CF (R&D Systems Cat#391-GR) (human, UniProt P08069 31-932); experiment: as above
T8 construct: Purchased soluble receptor; also called insulin-like growth factor-1 soluble receptor; IGF-R1

[9] = target: T9, rHuman HGF R/c-MET/Fc Chimera, CF (R&D Systems Cat#358-MT/CF) (human, UniProt P08581 25-932); experiment: as above
T9 construct: Purchased Fc chimera; also called HGF R/Fc; not shown: Fc portion of the purchased chimera

[10] = target: T10, Recombinant Human DLL4 (R&D Systems Cat#1506-D4/CF) (human, UniProt Q9NR61 27-524); experiment: ECL (MSD Multi-Spot) binding assay, antigen spotted on plate; Fab 6 nM; blank spot 191
T10 construct: Bought recombinant protein; also called delta-like protein 4; rHuman DLL4

[11] = target: T11, rHuman CD44/Fc Chimera, CF (R&D Systems Cat#3660-CD) (human, UniProt P16070 21-220); experiment: as above
T11 construct: Bought Fc chimera; Fc part of the bought chimera not given

[12] = target: T1, rHuman Notch-1/Fc Chimera, CF (R&D …); experiment: MSD ECL multi-spot plate, antigen immobilized; Fab 1.6 nM; blank spot 449
[13] = target: T2, rHuman ErbB2/Fc Chimera, CF (R&D …); experiment: as above
[14] = target: T3, Recombinant Human DLL4 (R&D Systems …); experiment: as above
[15] = target: T4, rHuman CD44/Fc Chimera, CF (R&D Systems …); experiment: as above
[16] = target: T5, rHuman Erythropoietin R/Fc Chimera, CF …; experiment: as above
[17] = target: T6, rHuman EGF R/Fc Chimera, CF (R&D …); experiment: as above
[18] = target: T7, rHuman P-Cadherin/Fc Chimera, CF (R&D …); experiment: as above
[19] = target: T8, rHuman IGF-1 sR (IGF-1 sR), CF (R&D …); experiment: as above
[20] = target: T9, rHuman HGF R/c-MET/Fc Chimera, CF (R&D …); experiment: as above
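Further: blank spot per well as comparator with Hit at signal to blank ratio of 4 or more.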

- ECL signal [1]: 831 ECL signal
- ECL signal [2]: 1230 ECL signal
- ECL signal [3]: 11400 ECL signal
- ECL signal [4]: 853 ECL signal
- ECL signal [5]: 881 ECL signal
- ECL signal [6]: 1030 ECL signal
- ECL signal [7]: 788 ECL signal
- ECL signal [8]: 1200 ECL signal
- ECL signal [9]: 1260 ECL signal
B1: Fab VH5-51_IGHD5-18*01>3_IGHJ4*01_G100K & V3-4_IGLJ1*01 (Fab, V domains shown)
VH: EVQLVQSGAEVKKPGESLKISCKGSGYSFTSYWIGWVRQMPGKGLEWMGIIYPGDSDTRYSPSFQGQVTISADKSISTAYLQWSSLKASDTAMYYCARRKYSYGYDYFDYWGQGTLVTVSS
VL: QTVVTQEPSFSVSPGGTVTLTCGLSSGSVSTSYYPSWYQQTPGQAPRTLIYSTNTRSSGVPDRFSGSILGNKAALTITGAQADDESDYYCVLYMGSGISYVFGTGTKVTVL
notes: It was expressed as a Fab: CH1 with tags from Plasmid A and lambda CL from Plasmid E; also called Fab No. 22

- ECL signal [10]: 1950
- ECL signal [11]: 547
B2: Fab VH5-51_IGHD5-18*01>3_IGHJ4*01 & V3-4_IGLJ1*01 (Fab, V domains shown)
VH: B1 VH with K100G
VL: B1 VL
notes: Tested as a Fab made in E. coli; also called IGHV5-51*03

- ECL signal [12]: 1050 ECL signal
- ECL signal [13]: 1440 ECL signal
- ECL signal [14]: 1540 ECL signal
- ECL signal [15]: 997 ECL signal
- ECL signal [16]: 920 ECL signal
- ECL signal [17]: 1200 ECL signal
- ECL signal [18]: 666 ECL signal
- ECL signal [19]: 1330 ECL signal
- ECL signal [20]: 1210 ECL signal
B3: Fab VH5-51_IGHD5-18*01>3_IGHJ4*01_G100R & V3-4_IGLJ1*01 (Fab, V domains shown)
VH: B1 VH with K100R
VL: B1 VL
notes: It was expressed as a Fab: CH1 with tags from Plasmid A and lambda CL from Plasmid E; also called Fab No. 23
